Assays:
HLA-B*15:02 = experiment: IEDB peptide-MHC binding, purified MHC/competitive/fluorescence; filed as Kd, often an IC50 or EC50 that approximates it; ≥ and ≤ were set here for values at or beyond the usual limits of such assays
HLA-B*27:05 [1] = experiment: IEDB peptide-MHC binding, purified MHC/competitive/fluorescence; ≥ and ≤ were set here for values at or beyond the usual limits of such assays; conditions: source organism: hepatitis C virus genotype 1a
HLA-A*02:01 [2] = experiment: IEDB peptide-MHC binding, purified MHC/competitive/fluorescence; filed as Kd, often an IC50 or EC50 that approximates it; ≥ and ≤ were set here for values at or beyond the usual limits of such assays; conditions: source organism: Encephalitozoon cuniculi GB-M1
HLA-A*02:03 = experiment: as above; conditions: source organism: Encephalitozoon cuniculi GB-M1
HLA-A*02:06 [3] = experiment: as above; conditions: source organism: Encephalitozoon cuniculi GB-M1
HLA-A*02:11 [4] = experiment: as above; conditions: source organism: Encephalitozoon cuniculi GB-M1
HLA-A*02:12 [5] = experiment: as above; conditions: source organism: Encephalitozoon cuniculi GB-M1
HLA-A*02:16 [6] = experiment: as above; conditions: source organism: Encephalitozoon cuniculi GB-M1
HLA-A*02:19 [7] = experiment: as above; conditions: source organism: Encephalitozoon cuniculi GB-M1
HLA-A*02:50 = experiment: as above
HLA-A*69:01 [8] = experiment: as above; conditions: source organism: Encephalitozoon cuniculi GB-M1
HLA-B*35:01 = experiment: IEDB peptide-MHC binding, cellular MHC/competitive/fluorescence; ≥ and ≤ were set here for values at or beyond the usual limits of such assays; conditions: source organism: Mycobacterium tuberculosis H37Rv
HLA-A*02:01 [9] = experiment: IEDB peptide-MHC binding, purified MHC/direct/fluorescence; filed as Kd, often an IC50 or EC50 that approximates it; ≥ and ≤ were set here for values at or beyond the usual limits of such assays
HLA-A*02:06 [10] = experiment: as above
HLA-A*02:11 [11] = experiment: as above
HLA-A*02:12 [12] = experiment: as above
HLA-A*02:16 [13] = experiment: as above
HLA-A*02:19 [14] = experiment: as above
HLA-A*03:01 = experiment: as above
HLA-A*24:03 = experiment: as above; conditions: source organism: Entamoeba histolytica HM-1:IMSS
HLA-A*26:01 = experiment: as above; conditions: source organism: Entamoeba histolytica HM-1:IMSS
HLA-A*29:02 = experiment: as above; conditions: source organism: Entamoeba histolytica HM-1:IMSS
HLA-A*69:01 [15] = experiment: as above; conditions: source organism: Entamoeba histolytica HM-1:IMSS
HLA-B*15:17 = experiment: as above; conditions: source organism: Entamoeba histolytica HM-1:IMSS
HLA-B*27:03 = experiment: as above; conditions: source organism: Entamoeba histolytica HM-1:IMSS
HLA-B*39:01 = experiment: as above; conditions: source organism: Entamoeba histolytica HM-1:IMSS
HLA-B*46:01 = experiment: as above
HLA-B*51:01 = experiment: as above; conditions: source organism: Entamoeba histolytica HM-1:IMSS
HLA-B*57:01 = experiment: as above; conditions: source organism: Entamoeba histolytica HM-1:IMSS
HLA-C*05:01 = experiment: as above; conditions: source organism: Bacillus anthracis str. A2012
HLA-C*07:02 = experiment: as above; conditions: source organism: Bacillus anthracis str. A2012
HLA-C*15:02 = experiment: as above; conditions: source organism: Bacillus anthracis str. A2012
HLA-B*15:42 = experiment: IEDB peptide-MHC binding, purified MHC/competitive/fluorescence; filed as Kd, often an IC50 or EC50 that approximates it; ≥ and ≤ were set here for values at or beyond the usual limits of such assays; conditions: source organism: Bacillus anthracis str. A2012
HLA-B*27:20 = experiment: as above; conditions: source organism: Bacillus anthracis str. A2012
HLA-B*45:06 = experiment: as above; conditions: source organism: Bacillus anthracis str. A2012
HLA-B*83:01 = experiment: as above; conditions: source organism: Bacillus anthracis str. A2012
HLA-C*14:02 = experiment: as above; conditions: source organism: Bacillus anthracis str. A2012
HLA-B*07:02 = experiment: IEDB peptide-MHC binding, purified MHC/direct/fluorescence; filed as Kd, often an IC50 or EC50 that approximates it; ≥ and ≤ were set here for values at or beyond the usual limits of such assays; conditions: source organism: Salmonella enterica
HLA-B*08:01 = experiment: as above; conditions: source organism: Salmonella enterica subsp. enterica serovar Typhimurium str. LT2
HLA-B*15:01 = experiment: as above; conditions: source organism: Salmonella enterica
HLA-B*27:05 [16] = experiment: as above
HLA-B*40:01 = experiment: as above; conditions: source organism: Salmonella enterica
HLA-B*44:02 = experiment: as above; conditions: source organism: Salmonella enterica
HLA-B*58:01 = experiment: as above; conditions: source organism: Salmonella enterica
HLA-B*48:01 = experiment: as above; conditions: source organism: Giardia lamblia ATCC 50803
HLA-B*73:01 = experiment: as above; conditions: source organism: Giardia lamblia ATCC 50803
[17] = source organism: Entamoeba histolytica HM-1:IMSS
[18] = source organism: Salmonella enterica
[19] = source organism: Salmonella enterica subsp. enterica serovar Typhimurium str. LT2

GMRVLGTNY
Kd (HLA-B*15:02; source organism: Vibrio cholerae 2740-80): 229 nM

GRAVICGKY
IC50 (HLA-B*27:05 [1]): 32 nM

GVYGGLCLA
Kd (HLA-A*02:01 [2]): 2.5 nM
Kd (HLA-A*02:03): 1.6 nM
Kd (HLA-A*02:06 [3]): ≤ 1 nM
Kd (HLA-A*02:11 [4]): ≤ 1 nM
Kd (HLA-A*02:12 [5]): 122 nM
Kd (HLA-A*02:16 [6]): ≤ 1 nM
Kd (HLA-A*02:19 [7]): 486 nM
Kd (HLA-A*02:50; source organism: Encephalitozoon cuniculi GB-M1): 0.3 nM
Kd (HLA-A*69:01 [8]): 423 nM

LPAKFLEGF
IC50 (HLA-B*35:01): 700 nM

RQRHYFDSA
Kd (HLA-A*02:01 [9]; [17]): 7000 nM
Kd (HLA-A*02:06 [10]; [17]): 4 nM
Kd (HLA-A*02:11 [11]; [17]): ≥ 20000 nM
Kd (HLA-A*02:12 [12]; [17]): ≥ 20000 nM
Kd (HLA-A*02:16 [13]; [17]): ≥ 20000 nM
Kd (HLA-A*02:19 [14]; [17]): ≥ 20000 nM
Kd (HLA-A*03:01; [17]): ≥ 20000 nM
Kd (HLA-A*24:03): ≥ 20000 nM
Kd (HLA-A*26:01): ≥ 20000 nM
Kd (HLA-A*29:02): ≥ 20000 nM
Kd (HLA-A*69:01 [15]): ≥ 20000 nM
Kd (HLA-B*15:17): ≥ 20000 nM
Kd (HLA-B*27:03): ≥ 20000 nM
Kd (HLA-B*39:01): ≥ 20000 nM
Kd (HLA-B*46:01; [17]): ≥ 20000 nM
Kd (HLA-B*51:01): ≥ 20000 nM
Kd (HLA-B*57:01): ≥ 20000 nM

WMYYPRSPV
Kd (HLA-C*05:01): ≥ 20000 nM
Kd (HLA-C*07:02): 667 nM
Kd (HLA-C*15:02): ≥ 20000 nM
Kd (HLA-B*15:02; source organism: Bacillus anthracis str. A2012): 391 nM
Kd (HLA-B*15:42): ≥ 5000 nM
Kd (HLA-B*27:20): 0.2 nM
Kd (HLA-B*45:06): ≥ 5000 nM
Kd (HLA-B*83:01): ≥ 5000 nM
Kd (HLA-C*14:02): 6.8 nM

WTLETLPRV
Kd (HLA-A*02:01 [9]; [18]): 28.7 nM
Kd (HLA-A*02:06 [10]; [19]): ≤ 1 nM
Kd (HLA-A*02:11 [11]; [19]): ≤ 1 nM
Kd (HLA-A*02:12 [12]; [19]): ≤ 1 nM
Kd (HLA-A*02:16 [13]; [19]): ≤ 1 nM
Kd (HLA-A*02:19 [14]; [19]): 4 nM
Kd (HLA-A*03:01; [18]): ≥ 20000 nM
Kd (HLA-B*07:02): ≥ 20000 nM
Kd (HLA-B*08:01): ≥ 20000 nM
Kd (HLA-B*15:01): ≥ 20000 nM
Kd (HLA-B*27:05 [16]; [18]): ≥ 20000 nM
Kd (HLA-B*40:01): ≥ 20000 nM
Kd (HLA-B*44:02): ≥ 20000 nM
Kd (HLA-B*46:01; [18]): ≥ 20000 nM
Kd (HLA-B*58:01): ≥ 20000 nM
Kd (HLA-A*02:50; source organism: Salmonella enterica subsp. enterica serovar Typhi): 9.4 nM

YRYKMPVME
Kd (HLA-B*27:05 [16]; source organism: Giardia lamblia ATCC 50803): 124 nM
Kd (HLA-B*48:01): ≥ 20000 nM
Kd (HLA-B*73:01): 1620 nM

From the Immune Epitope Database (IEDB)
